Experimental data as given in the DeepSol protein solubility set.

Assay: soluble on expression in E. coli; label from the status in PepcDB or PDB records
For “HHMDEEYDVIVLGTGLTECILSGIMSVNGKKVLHMDRNPYYGGESSSITPLEELYKRFQLLEGPPETMGRGRDWNVDLIPKFLMANGQLVKMLLYTEVTRYLDFKVVEGSFVYKGGKIYKVPSTETEALASNLMGMFEKRRFRKFLVFVANFDENDPKTFEGVDPQNTSMRDVYRKFDLGQDVIDFTGHALALYRTDDYLDQPCLETINRIKLYSESLARYGKSPYLYPLYGLGELPQGFARLSAIYGGTYMLNKPVDDIIMENGKVVGVKSEGEVARCKQLICDPSYVPDRVRKAGQVIRIICILSHPIKNTNDANSCQIIIPQNQVNRKSDIYVCMISYAHNVAAQGKYIAIASTTVETTDPEKEVEPALELLEPIDQKFVAISDLYEPIDDGSESQVFCSCSYDATTHFETTCNDIKDIYKRMAGSAFDFENMKRKQNDVFGEADQ”, the “soluble on expression in E. coli” value was “soluble”.
In the case of “MGHHHHHHSHRNLDSRTFITIGDRNFEVEADDLVTISELGRGAYGVVEKVRHAQSGTIMAVKRIRATVNSQEQKRLLMDLDINMRTVDCFYTVTFYGALFREGDVWICMELMDTSLDKFYRKVLDKNMTIPEDILGEIAVSIVRALEHLHSKLSVIHRDVKPSNVLINKEGHVKMCDFGISGYLVDSVAKTMDAGCKPYMAPERINPELNQKGYNVKSDVWSLGITMIEMAILRFPYESWGTPFQQLKQVVEEPSPQLPADRFSPEFVDFTAQCLRKNPAERMSYLELMEHPFFTLHKTKKTDIAAFVKEILGEDS”, the “soluble on expression in E. coli” value is reported as “not soluble”.
With “MAKNGGFSLFAKKEKRFIFEGRHSASDKLVNGEVSAFTEEEARKKLAKRGIRPLQITRVKTSSKRKITQEDITVFTRQLSTMIKAGLPLMQAFEIVARGHGNPSMTEMLMEIRGEVEQGSSLSRAFSNHPKYFDRFYCNLVAAGETGGVLESLLDKLAIYKEKTQAIRKKVKTALT” the “soluble on expression in E. coli” value was “not soluble”.
In the case of “MGSDKIHHHHHHMQRIAMISEHASPLASVGSVDSGGQNVYVAHLARQLGKSGYLVDVFTRRDKALLPDVVAFAPNVRVVHVPAGPAVFVPKEQLLSFMPAFGDSMVDFMRRDAIGYDVLHANFFMSGVAAMRAREVLDIPLVMTFHALGKVRRLHQGSADGFPDNRFEIEDELVRHADRVVAECPQDLDDLATLYGGDPERIDIVPCGFDEEEFAPLDRAEARRALDWDADVFTVLQLGRLVPRKGIDNVIRAIGHLRRDFRIPARLYVVGGNAEQPSVEATPEIGRLQGVADEAGVSDCVTFVGRRRRSQLCHFYSASDVFVTTPWYEPFGITPVEAMACGVPVVGADVGGIRSTVVDGETGYLVPPHAPEALADRLARLAGDRALARRMGAAGLQRAHANYTWMSVARTMEQVYARVMRAERPARRVAA”, the “soluble on expression in E. coli” value is reported as “not soluble”.
For “MNRWQGIIKQYKKYLPVDENTPIVTLYEGNTPLIEADNLARAIGFKGKIYLKYEGLNPTGSFKDRGMTLAISKAVEAGKRAVICASTGNTSASAAAYAARAGLRAYVLLPKGAVAIGKLSQAMIYGAKVLAIQGTFDDALNIVRKIGENFPVEIVNSVNPYRIEGQKTAAFEICDTLGEAPDYHFIPVGNAGNITAYWKGFKIYYEEGKITKLPRMMGWQAEGAAPIVKGYPIKNPQTIATAIKIGNPYSWKSALKAAQESGGKIDAVSDSEILYAYKLIASTEGVFCEPASAASVAGLIKLVREGFFKGGEVVTCTLTGNGLKDPDTAIKVCEEPITVPPDFDEVVKVLGF”, the “soluble on expression in E. coli” value was “soluble”.
With “MGSDKIHHHHHHMKIAFDVDVIKDLGITRMVHQVAEWGYKYIEQSPHPQINPFYKHPRASREIMAEYKQALRDTGLELSSFICVYRWSGPDELRRQAAVKNWKRLVEIAVEMGVQVINTEFSGDPNQPEICDEMFYRSMEELLPIFEREGIRVEIQAHPWDFCEENNETVDIVKSFRSDNVKYVYSVPHTFFYDKGVGDVASMLRYAGSDLSHVLIADTRNHTKHCRYIVNPPGVDAVVHQHVGVGEGDVDFDALFRTLREMKFAEQTFKVGGAPIVATSLFGYPEKMKYQAVETRELIERELLRR” the “soluble on expression in E. coli” value was “not soluble”.
In the case of “GTSPIQTPINTMSQQYTLPPLPYPYDALQPYISQQIMELHHKKHHQTYVNGLNAALEAQKKAAEATDVPKLVSVQQAIKFNGGGHINHSLFWKNLAPEKSGGGKIDQAPVLKAAIEQRWGSFDKFKDAFNTTLLGIQGSGWGWLVTDGPKGKLDITTTHDQDPVTGAAPVFGVDMWEHAYYLQYLNDKASYAKGIWNVINWAEAENRYIAGDKGGHPFMKL”, the “soluble on expression in E. coli” value is reported as “soluble”.
In the case of “LPSPSRQASTRRMSIGESIDGKINDWEEPRLDIEGFVVDYFTHRIRQNGMEWFGAPGLPSGVQPEHEMMRVMGTIFEKKHAENFETFSEQLLAVPRISFSLYQDVVRTVGNAQTDQSPMSYGRLIGLISFGGFVAAKMMESVELQGQVRNLFVYTSLFIKTRIRNNWKEHNRSWDDFMTLGKQMKEDYERAEAEKVGRRKQNRR”, the “soluble on expression in E. coli” value is reported as “soluble”.
With “MAKDIKFSEEARRSMLRGVDTLANAVKVTLGPKGRNVVLEKKFGSPLITNDGVTIAKEIELEDAFENMGAKLVAEVASKTNDVAGDGTTTATVLAQAMIREGLKNVTAGANPMGLRKGIEKAVVAAVEELKTISKPIEGKSSIAQVAAISAADEEVGQLIAEAMERVGNDGVITLEESKGFTTELDVVEGMQFDRGYASPYMITDSDKMEAVLDNPYILITDKKISNIQEILPVLEQVVQQGKPLLIIAEDVEGEALATLVVNKLRGTFNVVAVKAPGFGDRRKAMLEDIAILTGGEVITEELGRDLKSATVESLGRAGKVVVTKENTTVVEGVGSTEQIEARIGQIRAQLEETTSEFDREKLQERLAKLVGGVAVIKVGAATETELKERKLRIEDALNSTRAAVEEGIVAGGGTSLMNVYTKVASIVAEGDEATGINIVLRALEEPVRQIAINAGLEGSVVVERLKGEKVGVGFNAATGEWVNMLETGIVDPAKVTRSALQNAASVAAMFLTTEAVVADKPEPNAPAMPDMGGMGMGGMGGMM” the “soluble on expression in E. coli” value was “not soluble”.
With “MGSDKIHHHHHHMSDKTKELRNKYNSKNRHKNFGPCLRKVHIEGFRGVQSADLELEFPITAISGLNGSGKSTVGQLAICAYKKPDKSMTYKRLYIKDFFPVSPADPKPISDSAKVVYFYETDDYQKPKEVTVSRVKSSWSGYKRQPERYCYYIGFTVYLPKVERRDLSVYAGVNLQFTEKRDIEAEVVKKMARIIGHKYENVAFQGVSHNGKESEVGIAYRLGYSYSENNMGFGEGRILYTIDKLESSPEQSLFILEEPETSLHESAQHEFAKYLLDVCNRRHHQIILSTHSSVIVNALPPESRKLMIRDEGGVDIRNKISSGQLRSILSSGHVRSLDICVEDNFAKVLLIEVIRMKRKALLKIVEIHAIGSTDAVREAVRILKKTGKKAIAVRDADIGPSEKEGLYSFPGNKPPEKEVFEHSAVKAFFKSKYDLDVEWFFQYKNVSDHHYYAKCIASEIASDESVIQTSAIEEYLKHVNNNFDYLIDAIEKELDNHN” the “soluble on expression in E. coli” value was “not soluble”.
In the case of “MGSDKIHHHHHHMLELKHNFIFEDQPVAWGCMGQGPALVLIHGTPFSSQVWRRIAPLLSSHWTVYYYDMVGYGQSHKSAGQQVSLGGQDRLLAALLKEWKLTRPDILCHDFGGATALRGYFLQGLRYASLTLFDAVAISPWGSPFVAHVRKHQDAFTGLPKYAHDALLSAYLQGAAYQPLSEEALNIYMSPWQGEVGQAAFYRQIAQMDQCYTDDIEPLLTELDCPVNMLWGEQDEWIPLEVGKRLAHRLGDAPLQIVKNAGHLVQEDAPEAIVQSMYSLLLKRAGTSSSR”, the “soluble on expression in E. coli” value is reported as “not soluble”.
For “SPLPDTMFCAQQIHIPPELPDILKQFTKAAIRTQPADVLQWSAGYFSALSRGDPLPVKDRIEMPVATQKTDTGLTQGLLKVLHKQCSHKQYVELADLEKKWKNLCLPVEKLRTILELDPCEDKIEWIKFLALGCSSLGRTLNTAMKNVCEILTSDPEGGPARIPFETFAYVYQYLSGLDPELPAVETENYLTSLRLMSESRKNGMIGLSDFFVGKKII”, the “soluble on expression in E. coli” value was “soluble”.
With “MLTITQALVDQIVAHARQDHPDEACGVVAGPEGSGRPERFIPMLNAARSPTFYEFDSGDLLKLYREMDDRDEEPVIIYHSHTATEAYPSRTDISYANEPGAHYVLVSTADADDAGPFQFRSFQIVAGEVTEEEVKVVEAYLEHHHHHH” the “soluble on expression in E. coli” value was “soluble”.
In the case of “MLMNEFEKACETLRKFMAYMLEKDMKSWTELWDENAVFEFPYAPEGSPKRIEGKAAIYDYIKDYPKQIHLSSFTAPTVYRSADSNTVIAEFQCDGHVIETGLPYRQSYISVIETRDGRIVRYRDYWNPLVVKEAFGGSFLQTEESGK”, the “soluble on expression in E. coli” value is reported as “soluble”.
With “MSEQAPAPKRGRRFKEQTPVQRALGLLVHREHSKKELNRKLQARGIEPEAAQAAVERLAGEGWQDDVRFAASVVRNRASSGYGPLHIRAELGTHGLDSDAVSAAMATFEGDWTENALDLIRRRFGEDGPVDLAQRRKAADLLARRGFDGNSIRLATRFDLED” the “soluble on expression in E. coli” value was “soluble”.
